Results published in PMC9482650, “Quantitative fragmentomics allow affinity mapping of interactomes” (Nature Communications, 2022).

Experiments:
Assay in all cases: holdup assay
Set-up in all cases: key: below the threshold = too weak to quantify, mostly under pKd 3.1 to 4
Details in all cases: plain residues with an end cap or a label only (N-terminal biotin on a linker: ado-ado)
[1] = molecular target: T1, LNX2_2, Q8N448
T1 sequence (Q8N448 334-432, limits assumed, looked up): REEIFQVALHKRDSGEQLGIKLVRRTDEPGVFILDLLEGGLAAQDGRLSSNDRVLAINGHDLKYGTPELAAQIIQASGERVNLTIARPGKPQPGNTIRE

[2] = molecular target: DLG1_1, Q12959
[3] = molecular target: GOPC, Q9HD26
[4] = molecular target: T2, DFNB31_3, Q9P202
T2 sequence (Q9P202 811-907, limits assumed, looked up): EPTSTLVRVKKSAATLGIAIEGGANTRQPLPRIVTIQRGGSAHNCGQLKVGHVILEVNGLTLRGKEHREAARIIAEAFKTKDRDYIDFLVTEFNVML

[5] = molecular target: T3, HTRA3, P83110
T3 sequence (P83110 354-453, limits assumed, looked up): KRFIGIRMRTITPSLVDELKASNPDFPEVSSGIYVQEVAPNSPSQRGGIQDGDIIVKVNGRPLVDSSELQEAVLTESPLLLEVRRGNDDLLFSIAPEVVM

[6] = molecular target: MAGI2_6, Q86UL8
Sequence of MAGI2_6, Q86UL8 (Q86UL8 1141-1229): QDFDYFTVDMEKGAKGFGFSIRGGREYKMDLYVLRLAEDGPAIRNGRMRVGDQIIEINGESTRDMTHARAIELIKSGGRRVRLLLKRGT

[7] = molecular target: Inadl_10, Q8NI35
Sequence of Inadl_10, Q8NI35 (Q8NI35 1673-1763): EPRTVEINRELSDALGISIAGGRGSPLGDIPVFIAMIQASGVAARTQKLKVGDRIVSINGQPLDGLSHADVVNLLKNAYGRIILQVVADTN

[8] = molecular target: PTPN3, P26045
Sequence of PTPN3, P26045 (P26045 505-587): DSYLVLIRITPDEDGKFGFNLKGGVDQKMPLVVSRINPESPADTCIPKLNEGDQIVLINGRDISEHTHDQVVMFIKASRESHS

[9] = molecular target: T4, SNTB1, Q13884
T4 sequence (Q13884 107-205, limits assumed, looked up): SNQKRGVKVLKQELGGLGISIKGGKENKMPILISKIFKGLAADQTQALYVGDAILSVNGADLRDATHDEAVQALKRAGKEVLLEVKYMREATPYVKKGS

[10] = molecular target: SCRIB_1, Q14160
Sequence of SCRIB_1, Q14160 (Q14160 718-814): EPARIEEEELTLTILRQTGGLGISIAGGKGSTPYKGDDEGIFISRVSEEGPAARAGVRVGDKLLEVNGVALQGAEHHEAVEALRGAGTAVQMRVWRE

[11] = molecular target: Inadl_4, Q8NI35
Sequence of Inadl_4, Q8NI35 (Q8NI35 547-651): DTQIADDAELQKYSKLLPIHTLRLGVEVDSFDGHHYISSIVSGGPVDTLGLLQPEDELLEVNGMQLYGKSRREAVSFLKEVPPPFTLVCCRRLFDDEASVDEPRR

[12] = molecular target: T5, APBA3_1, O96018
T5 sequence (O96018 389-490, limits assumed, looked up): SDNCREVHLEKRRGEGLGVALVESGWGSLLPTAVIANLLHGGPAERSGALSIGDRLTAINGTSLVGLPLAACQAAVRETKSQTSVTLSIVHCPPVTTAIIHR

[13] = molecular target: T6, RAPGEF6, Q8TEU7
T6 sequence (Q8TEU7 525-625, limits assumed, looked up): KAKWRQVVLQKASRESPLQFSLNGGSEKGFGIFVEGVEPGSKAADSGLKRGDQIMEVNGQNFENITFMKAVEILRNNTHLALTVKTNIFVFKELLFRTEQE

[14] = molecular target: SNX27, Q96L92
[15] = molecular target: T7, TJP3_3, O95049
T7 sequence (O95049 375-456, limits assumed, looked up): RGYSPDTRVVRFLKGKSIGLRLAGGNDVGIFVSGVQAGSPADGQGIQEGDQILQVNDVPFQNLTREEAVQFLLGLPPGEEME

[16] = molecular target: PICK1, Q9NRD5
Sequence of PICK1, Q9NRD5 (Q9NRD5 17-115): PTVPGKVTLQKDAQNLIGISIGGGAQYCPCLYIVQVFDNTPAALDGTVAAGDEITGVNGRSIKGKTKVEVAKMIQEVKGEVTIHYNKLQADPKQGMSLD

[17] = molecular target: T8, ARHGEF11, O15085
T8 sequence (O15085 42-136, limits assumed, looked up): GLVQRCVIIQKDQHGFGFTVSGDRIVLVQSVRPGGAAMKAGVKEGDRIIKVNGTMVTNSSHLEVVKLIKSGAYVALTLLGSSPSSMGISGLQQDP

[18] = molecular target: NHERF4_2, Q86UT5
Sequence of NHERF4_2, Q86UT5 (Q86UT5 220-308): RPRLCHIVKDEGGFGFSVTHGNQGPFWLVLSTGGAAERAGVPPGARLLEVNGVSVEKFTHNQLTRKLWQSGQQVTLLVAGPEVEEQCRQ

[19] = molecular target: NOS1, P29475
Sequence of NOS1, P29475 (P29475 9-101): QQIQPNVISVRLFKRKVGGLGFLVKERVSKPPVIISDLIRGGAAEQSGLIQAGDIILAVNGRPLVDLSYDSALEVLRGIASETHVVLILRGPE

[20] = molecular target: GIPC2, Q8TF65
Sequence of GIPC2, Q8TF65 (Q8TF65 112-203): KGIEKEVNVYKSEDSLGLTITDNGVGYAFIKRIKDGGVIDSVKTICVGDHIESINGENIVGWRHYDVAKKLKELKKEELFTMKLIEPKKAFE

[21] = molecular target: IL16_3, Q14005
Sequence of IL16_3, Q14005 (Q14005 1107-1207): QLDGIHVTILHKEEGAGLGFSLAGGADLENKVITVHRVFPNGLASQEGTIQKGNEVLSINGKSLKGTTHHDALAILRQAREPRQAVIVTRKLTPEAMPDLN

[22] = molecular target: DLG1_2, Q12959
[23] = molecular target: TJP1_3, Q07157
Sequence of TJP1_3, Q07157 (Q07157 416-512): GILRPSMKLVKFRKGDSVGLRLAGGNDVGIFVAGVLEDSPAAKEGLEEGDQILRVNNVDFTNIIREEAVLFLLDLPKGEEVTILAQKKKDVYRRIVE

[24] = molecular target: T9, SNTG1, Q9NSN8
T9 sequence (Q9NSN8 52-150, limits assumed, looked up): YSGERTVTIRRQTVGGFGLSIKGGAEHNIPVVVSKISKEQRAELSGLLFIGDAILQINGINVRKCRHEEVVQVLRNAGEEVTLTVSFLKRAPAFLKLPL

[25] = molecular target: T10, DFNB31_2, Q9P202
T10 sequence (Q9P202 274-371, limits assumed, looked up): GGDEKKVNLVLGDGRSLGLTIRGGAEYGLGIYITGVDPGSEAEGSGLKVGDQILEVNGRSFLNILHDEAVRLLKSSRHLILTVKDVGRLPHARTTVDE

[26] = molecular target: T11, MPDZ_12, O75970
T11 sequence (O75970 1857-1958, limits assumed, looked up): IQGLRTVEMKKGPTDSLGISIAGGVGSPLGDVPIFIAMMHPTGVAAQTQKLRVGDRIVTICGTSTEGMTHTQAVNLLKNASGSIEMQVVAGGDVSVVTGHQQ

[27] = molecular target: CASK, O14936
Sequence of CASK, O14936 (O14936 487-570): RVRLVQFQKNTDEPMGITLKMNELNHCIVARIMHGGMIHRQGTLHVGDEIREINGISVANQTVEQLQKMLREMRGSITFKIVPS

EAVTVESTSL [SLC22A11, Q9NSA0]
pKd [1]: 3.67
pKd [2]: below the threshold
pKd [3]: 4.18
pKd [4]: below the threshold
pKd [5]: below the threshold
pKd [6]: 4.2
pKd [7]: below the threshold
pKd [8]: 4.62
pKd [9]: 3.94
pKd [10]: 4.56
pKd [11]: below the threshold
pKd [12]: below the threshold
pKd [13]: below the threshold
pKd [14]: 5.41
pKd [15]: below the threshold
pKd [16]: below the threshold
pKd [17]: 4.95
pKd [18]: below the threshold
pKd [19]: 3.5
pKd [20]: below the threshold
pKd [21]: below the threshold
pKd [22]: below the threshold
pKd [23]: below the threshold
pKd [24]: 3.5
pKd [25]: below the threshold
pKd [26]: below the threshold
pKd [27]: below the threshold

QQGLLPHSSC [TYRO3, Q06418]
pKd [1]: below the threshold
pKd [2]: below the threshold
pKd [3]: below the threshold
pKd [4]: 4.21
pKd [5]: below the threshold
pKd [6]: below the threshold
pKd [7]: below the threshold
pKd [8]: below the threshold
pKd [9]: below the threshold
pKd [10]: below the threshold
pKd [11]: below the threshold
pKd [12]: below the threshold
pKd [13]: below the threshold
pKd [14]: below the threshold
pKd [15]: below the threshold
pKd [16]: below the threshold
pKd [17]: 3.55
pKd [18]: below the threshold
pKd [19]: below the threshold
pKd [20]: 3.53
pKd [21]: below the threshold
pKd [22]: below the threshold
pKd [23]: below the threshold
pKd [24]: below the threshold
pKd [25]: below the threshold
pKd [26]: 3.6
pKd [27]: below the threshold

KSRPENGTVC [TMEM178B, H3BS89]
pKd [1]: 4.32
pKd [2]: 3.71
pKd [3]: below the threshold
pKd [4]: 3.99
pKd [5]: 4.44
pKd [6]: below the threshold
pKd [7]: below the threshold
pKd [8]: 3.77
pKd [9]: 3.56
pKd [10]: 3.78
pKd [11]: below the threshold
pKd [12]: below the threshold
pKd [13]: below the threshold
pKd [14]: 3.58
pKd [15]: below the threshold
pKd [16]: below the threshold
pKd [17]: 3.89
pKd [18]: below the threshold
pKd [19]: 3.47
pKd [20]: below the threshold
pKd [21]: below the threshold
pKd [22]: below the threshold
pKd [23]: below the threshold
pKd [24]: below the threshold
pKd [25]: below the threshold
pKd [26]: below the threshold
pKd [27]: below the threshold

IQISELETNV [SLC1A7, O00341]
pKd [1]: 4.02
pKd [2]: 4.34
pKd [3]: below the threshold
pKd [4]: below the threshold
pKd [5]: below the threshold
pKd [6]: 4.31
pKd [7]: below the threshold
pKd [8]: 4.84
pKd [9]: 5.37
pKd [10]: 4.11
pKd [11]: below the threshold
pKd [12]: below the threshold
pKd [13]: below the threshold
pKd [14]: 5.65
pKd [15]: below the threshold
pKd [16]: 4.18
pKd [17]: 3.94
pKd [18]: below the threshold
pKd [19]: below the threshold
pKd [20]: 3.86
pKd [21]: below the threshold
pKd [22]: 4.91
pKd [23]: below the threshold
pKd [24]: 5.26
pKd [25]: below the threshold
pKd [26]: below the threshold
pKd [27]: below the threshold

TNSKQGETTV [FZD1, Q9UP38]
pKd [1]: 4.71
pKd [2]: 4.61
pKd [3]: 3.67
pKd [4]: 4.06
pKd [5]: below the threshold
pKd [6]: 4.03
pKd [7]: below the threshold
pKd [8]: 4.79
pKd [9]: 4.72
pKd [10]: 4.07
pKd [11]: below the threshold
pKd [12]: below the threshold
pKd [13]: 3.54
pKd [14]: 5.5
pKd [15]: below the threshold
pKd [16]: 4.2
pKd [17]: 4.25
pKd [18]: below the threshold
pKd [19]: 3.53
pKd [20]: 4.18
pKd [21]: below the threshold
pKd [22]: 5.09
pKd [23]: 3.69
pKd [24]: 4.31
pKd [25]: below the threshold
pKd [26]: below the threshold
pKd [27]: below the threshold
